Consider three molecules from paper PMC12204516, “Structural basis for higher-order DNA binding by a bacterial transcriptional regulator” (PLOS Genetics, 2025).

Where “and” joins values, the source holds several entries; their conditions need not be identical. Identical values can stand only once.

To fix the notation:
B3: RES^Pp toxin with N-terminal His6-tag (RES^Pp_(NHis6)), of the Xre-RES^Pp_(NHis6) complex (natural protein, Pseudomonas putida KT2440, UniProt Q88K57 1-145, looked up)
chain: MILWRISAYADLSGTGGLRVSGRWHQAGRPVVYAATSPPGAMLEVLVHLEIDPEDFPTTMRLLRIELPDTVSQAQLPALQPGWSAQPELTRTLGNRFLDDCSALLLPVPSAIMPSTTNYLFNPRHPQAQSAKIQVEDFTPDSRLF
notes: RES-domain NADase toxin encoded by res^Pp of the xre-res locus, Pseudomonas putida KT2440; residues 1-145 built in PDB 9R35; the 13 N-terminal residues from the tag are not seen in the model; also called RES_(His6); RES^Pp_(His6); not shown: His6, N-terminal, kept

Data set [1] addresses B3. Briefly: SEC-MALS; Superose 6 Increase 10/300, 20-40 ug per sample, 20 mM HEPES pH 7.5, 150 mM KCl, 5 mM MgCl2, 3 mM BME. The settings on record: both partners purified.
Data set [2] has as its target B3. Briefly: mass photometry. The settings on record: both partners purified.
Data set [3] concerns the target T1, Xre^Pp antitoxin with a N-terminal His6-tag (Xre_(NHis6)), of the Xre_(NHis6)-RES^Pp complex (Pseudomonas putida KT2440, UniProt Q88K58 11-159).
T1 construct: also called Xre_(His6); source: E. coli BL21(DE3), pETDuet::xre_(NHis6)-res^Pp, purified with RES (HisTrap FF, Source 15Q, Superdex 200 Increase); not shown: His6, N-terminal, kept
T1 sequence: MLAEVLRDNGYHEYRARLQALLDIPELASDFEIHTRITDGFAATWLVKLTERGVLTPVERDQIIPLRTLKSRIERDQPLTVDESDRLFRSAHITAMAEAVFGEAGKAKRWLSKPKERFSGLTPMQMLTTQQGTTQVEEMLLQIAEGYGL
Briefly: SEC. The settings on record: both partners purified.

The data set “mass photometry” concerns the molecule itself. Briefly: mass photometry.
Data set [4] deals with the molecule itself. Briefly: SEC-MALS; Superose 6 Increase 10/300, 20-40 ug per sample, 20 mM HEPES pH 7.5, 150 mM KCl, 5 mM MgCl2, 3 mM BME. On the technique in general: Size exclusion chromatography separates by hydrodynamic size, large species first.

B1: Xre^Pp antitoxin, untagged, co-expressed and co-purified with RES^Pp_(NHis6) (Xre-RES^Pp_(NHis6) complex) (natural protein, Pseudomonas putida KT2440, UniProt Q88K58 11-159, looked up)
chain: MLAEVLRDNGYHEYRARLQALLDIPELASDFEIHTRITDGFAATWLVKLTERGVLTPVERDQIIPLRTLKSRIERDQPLTVDESDRLFRSAHITAMAEAVFGEAGKAKRWLSKPKERFSGLTPMQMLTTQQGTTQVEEMLLQIAEGYGL
notes: Xre antitoxin (N-terminal HTH domain, C-terminal DUF2384) encoded by xre^Pp of the xre-res locus, Pseudomonas putida KT2440; residues 1-149 built in PDB 9R35 (complete in chain B and others); also called Xre antitoxin
The stoichiometry N is a count of units in the complex or per binding partner. In the case of B1, the “stoichiometry N” value in data set [1] is 2 Xre per RES; in data set [2] it was ~2 Xre per RES and ~1.5 Xre per RES and ~1 Xre per RES.

B2: RES^Pp toxin, untagged, co-expressed and co-purified with Xre_(NHis6) (Xre_(NHis6)-RES^Pp complex) (natural protein, Pseudomonas putida KT2440)
chain: MILWRISAYADLSGTGGLRVSGRWHQAGRPVVYAATSPPGAMLEVLVHLEIDPEDFPTTMRLLRIELPDTVSQAQLPALQPGWSAQPELTRTLGNRFLDDCSALLLPVPSAIMPSTTNYLFNPRHPQAQSAKIQVEDFTPDSRLF
notes: also called RES toxin
In the case of B2, in data set [3], the “stoichiometry N” value was found to be 1 RES per Xre. Further, in the data set “mass photometry”, the binding result is given as “binds”. Take B3: the binding result in data set [4] was “binds”.
